Assay results from paper PMC5832032, “Structural Basis for pH-Dependent Oligomerization of Dihydropyrimidinase from Pseudomonas aeruginosa PAO1” (Bioinorganic Chemistry and Applications, 2018).
Several values for one entry are separate records, joined by “and”; a condition that tells them apart may be missing. Equal entries are not always repeated.

Biological target: the molecule itself
Test: SEC; Superdex 200 prep grade, purified protein 5 mg/mL in Buffer C (20 mM MES, 100 mM NaCl, pH 5.9), 0.5 mL/min; masses estimated against standard proteins; dimers and tetramers coexist

B1: Pseudomonas aeruginosa PAO1 dihydropyrimidinase (enzyme)
chain: MSLLIRGATVVTHEESYRADVLCANGLIQAIGENLETPSGCDVLDGGGQYLMPGGIDPHTHMQLPFMGTVASEDFFSGTAAGLAGGTTSIIDFVIPNPRQSLLEAFHTWRGWAQKSAADYGFHVAITWWSDEVAREMGELVAQHGVNSFKHFMAYKNAIMAADDTLVASFERCLELGAVPTVHAENGELVFHLQQKLLAQGLTGPEAHPLSRPPQVEGEAASRAIRIAETLGTPLYLVHISSREALDEIAYARAKGQPVYGEVLAGHLLLDDSVYRHPDWATAAGYVMSPPFRPVEHQEALWRGLQSGNLHTTATDHCCFCAEQKAMGRDDFSKIPNGTAGIEDRMALLWDAGVNSGRLSMHEFVALTSTNTAKIFNLFPRKGAIRVGADADLVLWDPQGSRTLSAATHHQRVDFNIFEGRTVRGIPSHTISQGKLLWAAGDLRAEPGAGRYVERPAYPSVYEVLGRRAERQRPVAVER
modifications: carboxylated lysine in the active site (position not given)
notes: dihydropyrimidinase of Pseudomonas aeruginosa PAO1; two zinc ions per monomer in the active site; also called P. aeruginosa dihydropyrimidinase; pseudomonal dihydropyrimidinase
Q: With B1 as the protein, how does the “stoichiometry N” value read?
A: 2 and 4
